Laboratory results published in patent US20250109190A1 (BYOMASS, published 2025).
Changes are numbered by the printed parent chain.

T1: human GDF10 (human, UniProt P55107 369-478)
T1 sequence (looked up): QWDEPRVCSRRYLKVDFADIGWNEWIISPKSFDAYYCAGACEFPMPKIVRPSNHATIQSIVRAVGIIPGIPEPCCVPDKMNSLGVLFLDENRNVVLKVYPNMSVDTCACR

T2: Activin B (UniProt P09529 293-407)
T2 sequence (looked up): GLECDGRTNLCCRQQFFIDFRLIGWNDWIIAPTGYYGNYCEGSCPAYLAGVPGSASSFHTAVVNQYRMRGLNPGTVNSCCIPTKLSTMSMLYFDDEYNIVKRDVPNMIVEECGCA

T3: human GDNF (human, UniProt P39905 78-211, limits assumed)
T3 sequence (looked up): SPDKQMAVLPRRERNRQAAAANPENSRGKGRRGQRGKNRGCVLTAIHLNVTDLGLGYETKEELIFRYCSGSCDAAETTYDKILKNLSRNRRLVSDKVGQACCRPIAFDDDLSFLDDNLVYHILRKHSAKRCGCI

T4: GDF15 Fc (UniProt Q99988 197-308, limits assumed)
T4 construct: species not given; not shown: Fc part of the fusion
T4 sequence (looked up): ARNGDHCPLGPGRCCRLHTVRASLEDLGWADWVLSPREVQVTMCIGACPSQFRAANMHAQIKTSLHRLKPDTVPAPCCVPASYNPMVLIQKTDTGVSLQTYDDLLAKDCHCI

T5: BMP10 (UniProt O95393 317-424)
T5 sequence (looked up): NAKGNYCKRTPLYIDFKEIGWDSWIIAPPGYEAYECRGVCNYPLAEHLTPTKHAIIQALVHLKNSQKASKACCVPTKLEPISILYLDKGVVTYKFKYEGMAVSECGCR

T6: BMP9 (UniProt Q9UK05 320-429)
T6 sequence (looked up): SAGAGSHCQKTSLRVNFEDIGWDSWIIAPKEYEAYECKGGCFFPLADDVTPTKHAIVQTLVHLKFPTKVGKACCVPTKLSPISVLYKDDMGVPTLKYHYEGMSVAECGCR

B1: Antibody Q (Clone Q), IgG (antibody, V domains shown)
VH: QVQLVQSGAEVKKPGSSVKVSCKASGGSFSPYTWSWVRQAPGQGLEWMGGIIPISGTANTAQKFQGRVTITADESTSTAYMELSSLRSEDTAVYYCARGGPLSGWRASYYYWGQGTLVTVSS
VL: not shown
notes: IgG
B2: Antibody R (Clone R), IgG (antibody, V domains shown)
VH: B1 VH with W34I, P53L, I54T, T60Y
VL: not shown
notes: IgG
B3: Antibody O (Clone O), IgG (antibody, V domains shown)
VH: QVQLVQSGAEVKKPGSSVKVSCKASGGTFSNYDINWVRQAPGQGLEWMGGIIPVFGTAAYAQKFQGRVTITADESTSTAYMELSSLRSEDTAVYYCAREARDGYRYAFQHWGQGTLVTVSS
VL: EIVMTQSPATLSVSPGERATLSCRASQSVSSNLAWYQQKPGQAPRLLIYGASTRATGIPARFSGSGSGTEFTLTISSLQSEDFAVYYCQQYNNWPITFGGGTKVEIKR
notes: IgG
B4: Antibody K (Clone K), IgG (antibody, V domains shown)
VH: QVQLVQSGAEVKKPGSSVKVSCKASGGTSSSYAISWVRQAPGQGLEWMGYIIPAFGTANYAQKFQGRVTITADESTSTAYMELSSLRSEDTAVYYCARPVRTYPLGKYFYHWGQGTLVTVSS
VL: EIVLTQSPATLSLSPGERATLSCRASQSVSSYLAWYQQKPGQAPRLLIYDASNRATGIPARFSGSGSGTDFTLTISSLEPEDFAVYYCQQDSIFPPYTFGGGTKVEIKR
notes: IgG
B5: Antibody G (Clone G), IgG (antibody, V domains shown)
VH: QVQLVQSGAEVKKPGASVKVSCKASGYTFTSYYIHWVRQAPGQGLEWMGAIYAYSGDTNYAQKLQGRVTMTTDTSTSTAYMELRSLRSDDTAVYYCARARDIAAAGLGAFDYWGQGTLVTVSS
VL: EIVLTQSPGTLSLSPGERATLSCRASQSVRSSYLAWYQQKPGQAPRLLIYGASSRATGIPDRFSGSGSGTDFTLTISRLEPEDFAVYYCQQYSNYPRTFGGGTKVEIKR
notes: IgG
B6: Antibody I (Clone I), IgG (antibody, V domains shown)
VH: QVQLVQSGAEVKKPGSSVKVSCKASGGTFSNYAISWVRQAPGQGLEWMGYIIPFFGTANYAQKFQGRVTITADESTSTAYMELSSLRSEDTAVYYCARGGSGYSTSWGSSLYWGQGTLVTVSS
VL: B5 VL with R30S, S54Y, Q90L, Y92S, S93G, N94V, Y95F, R97Y
notes: IgG

Each binder was assayed against T1, human GDF10 (assay: BLI Octet; IgG, avid).
B1: no binding (tested: 100 nM). B2: no binding (tested: 100 nM). B3: no binding (tested: 100 nM). B4: no binding (tested: 100 nM). B5: no binding (tested: 100 nM). B6: no binding (tested: 100 nM).

Each binder was assayed against T2, Activin B (assay: BLI Octet; IgG, avid).
B1: no binding (tested: 100 nM). B2: no binding (tested: 100 nM). B3: no binding (tested: 100 nM). B4: no binding (tested: 100 nM). B5: no binding (tested: 100 nM). B6: no binding (tested: 100 nM).

What follows are binders tested against human GDF11 (human, UniProt O95390 299-407) (assay: BLI Octet; IgG, avid).
Sequence of human GDF11 (O95390 299-407 limits assumed): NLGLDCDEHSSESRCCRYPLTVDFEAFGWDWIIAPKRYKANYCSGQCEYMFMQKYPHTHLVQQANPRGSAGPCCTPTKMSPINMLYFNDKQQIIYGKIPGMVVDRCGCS
B1: no binding (tested: 100 nM). B2: no binding (tested: 100 nM). B3: no binding (tested: 100 nM). B4: no binding (tested: 100 nM). B5: no binding (tested: 100 nM). B6: no binding (tested: 100 nM).

These binders were tested against T3, human GDNF (assay: BLI Octet; IgG, avid).
B1: no binding (tested: 100 nM). B2: no binding (tested: 100 nM). B3: no binding (tested: 100 nM). B4: no binding (tested: 100 nM). B5: no binding (tested: 100 nM). B6: no binding (tested: 100 nM).

These binders were tested against T4, GDF15 Fc (assay: BLI Octet; IgG, avid).
B1: no binding (tested: 100 nM). B2: no binding (tested: 100 nM). B3: no binding (tested: 100 nM). B4: no binding (tested: 100 nM). B5: no binding (tested: 100 nM). B6: no binding (tested: 100 nM).

The binders below were run against human GDF8 (human, UniProt O14793 267-375) (assay: BLI Octet; IgG, avid).
B1: no binding (tested: 100 nM). B2: no binding (tested: 100 nM). B3: no binding (tested: 100 nM). B4: no binding (tested: 100 nM). B5: no binding (tested: 100 nM). B6: no binding (tested: 100 nM).

These binders were tested against T5, BMP10 (assay: BLI Octet; IgG, avid).
B1: no binding (tested: 100 nM). B2: no binding (tested: 100 nM). B3: no binding (tested: 100 nM). B4: no binding (tested: 100 nM). B5: no binding (tested: 100 nM). B6: no binding (tested: 100 nM).

These binders were tested against T6, BMP9 (assay: BLI Octet; IgG, avid).
B1: no binding (tested: 100 nM). B2: no binding (tested: 100 nM). B3: no binding (tested: 100 nM). B4: no binding (tested: 100 nM). B5: no binding (tested: 100 nM). B6: no binding (tested: 100 nM).
